Source: patent US20220089683A1 (ACCELERON PHARMA, published 2022)

B1: GDF11 (ligand, UniProt O95390 299-407, looked up)
chain: NLGLDCDEHSSESRCCRYPLTVDFEAFGWDWIIAPKRYKANYCSGQCEYMFMQKYPHTHLVQQANPRGSAGPCCTPTKMSPINMLYFNDKQQIIYGKIPGMVVDRCGCS
notes: also called BMP11

How the values were obtained:
[1] = molecular target: T1, ActRIIA-mFc (human, UniProt P27037 21-135); assay: SPR (Biacore), ligand amine-coupled on CM5 chip, fusion protein loaded in solution
T1 construct: also called hActRIIA-mFc; not shown: mouse Fc domain
Method: GDF-11 or activin A were immobilized on a Biacore™ CM5 chip using standard amine-coupling procedure. ActRIIA-hFc and ActRIIA-mFc proteins were loaded onto the system, and binding was measured.

[2] = molecular target: B1; assay: SPR (Biacore)
[3] = molecular target: T2, activin B (UniProt P09529 293-407); assay: SPR (Biacore)
T2 sequence (looked up): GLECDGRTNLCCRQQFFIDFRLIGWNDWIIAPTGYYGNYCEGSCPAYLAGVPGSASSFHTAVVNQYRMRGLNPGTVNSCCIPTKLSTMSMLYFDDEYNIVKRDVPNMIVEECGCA

[4] = molecular target: T3, activin A (UniProt P08476 311-426); assay: SPR (Biacore)
T3 sequence (looked up): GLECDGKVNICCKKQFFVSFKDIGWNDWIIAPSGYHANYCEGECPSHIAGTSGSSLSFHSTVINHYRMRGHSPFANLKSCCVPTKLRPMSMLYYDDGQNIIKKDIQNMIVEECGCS

T1 sequence (P27037 21-135): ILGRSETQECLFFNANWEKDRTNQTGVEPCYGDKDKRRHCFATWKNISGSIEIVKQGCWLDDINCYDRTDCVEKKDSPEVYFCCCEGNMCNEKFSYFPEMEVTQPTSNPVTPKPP

B1
binding result [1]: binds

B2: ActRIIB(20-134)-hFc (Fc fusion)
chain: GRGEAETRECIYYNANWELERTNQSGLERCEGEQDKRLHCYASWRNSSGTIELVKKGCWLDDFNCYDRQECVATEENPQVYFCCCEGNFCNERFTHLPEAGGPEVTYEPPPTAPTGGGTHTCPPCPAPELLGGPSVFLFPPKPKDTLMISRTPEVTCVVVDVSHEDPEVKFNWYVDGVEVHNAKTKPREEQYNSTYRVVSVLTVLHQDWLNGKEYKCKVSNKALPVPIEKTISKAKGQPREPQVYTLPPSREEMTKNQVSLTCLVKGFYPSDIAVEWESNGQPENNYKTTPPVLDSDGSFFLYSKLTVDKSRWQQGNVFSCSVMHEALHNHYTQKSLSLSPGK
notes: also called ActRIIB-hFc; hActRIIB-hFc
Kd [2]: 0.036 nM
Kd [3]: 0.012 nM
Kd [4]: 0.016 nM
